We go through seven molecules from US20220227809A1.

Assay [1] addresses norovirus GII.17 Saitama strain virus-like particle (VLP) (norovirus GII.17 Saitama strain). Briefly: BLI (BLItz), biotinylated peptide on SA chip, VLP in solution.
Assay [2] addresses norovirus GII.3 TCH strain virus-like particle (VLP) (norovirus GII.3 TCH strain). Described as above.

Ends that are not written are not given here.

B1: norovirus-binding peptide of SEQ ID NO: 288 (peptide)
peptide: CKARSARGVS
modifications: also: biotinylated via PEG3 (AEEEA)-Trp spacer, attachment site and resin-derived C-terminal Lys or Cys not given here
In general, Kd refers to the constant that tells how readily two partners part at equilibrium. The low end stands for a tighter complex, the high end for a looser complex. One may read the koff as the first-order rate constant of dissociation. Usually kon stands for the second-order rate constant of association. The low end stands for slow association, the high end for fast association. In assay [1], B1 came in with a Kd of 12 nM, a koff of 0.00747 s⁻¹ and a kon of 620000 M⁻¹ s⁻¹. In addition, in assay [2], the Kd amounted to 6.86 nM, the koff is 0.0143 s⁻¹ and the kon amounted to 2.09e+06 M⁻¹ s⁻¹.

B2: norovirus-binding peptide of SEQ ID NO: 205 (peptide)
peptide: FVWSRRTGLY
modifications: also: biotinylated via PEG3 (AEEEA)-Trp spacer, attachment site and resin-derived C-terminal Lys or Cys not given here
In assay [1], B2 had a Kd of 109 nM, a koff of 0.0184 s⁻¹ and an on-rate (kon) of 169000 M⁻¹ s⁻¹. In assay [2], the Kd amounted to 31.6 nM, the koff amounted to 0.0325 s⁻¹ and the kon was 1.03e+06 M⁻¹ s⁻¹.

B3: norovirus-binding peptide of SEQ ID NO: 167 (peptide)
peptide: FVWRRRAGLY
modifications: also: biotinylated via PEG3 (AEEEA)-Trp spacer, attachment site and resin-derived C-terminal Lys or Cys not given here
For the molecule B3, in assay [1], the dissociation constant (Kd) stood at 0.696 nM, the off-rate constant (koff) was 0.00111 s⁻¹ and the on-rate (kon) amounted to 1.59e+06 M⁻¹ s⁻¹. In assay [2], this molecule came in with a Kd of 1.39 nM, a koff of 0.00435 s⁻¹ and an on-rate (kon) of 3.14e+06 M⁻¹ s⁻¹.

B4: norovirus-binding peptide of SEQ ID NO: 283 (peptide)
peptide: RSMSLHVSMT
modifications: also: biotinylated via PEG3 (AEEEA)-Trp spacer, attachment site and resin-derived C-terminal Lys or Cys not given here
In assay [1], B4 came in with a dissociation constant Kd of 1.39 nM, a dissociation rate constant (koff) of 0.00138 s⁻¹ and a kon of 994000 M⁻¹ s⁻¹. In assay [2], this molecule registered a dissociation constant Kd of 0.909 nM, a koff of 0.00715 s⁻¹ and an association rate constant (kon) of 7.86e+06 M⁻¹ s⁻¹.

B5: norovirus-binding peptide of SEQ ID NO: 263 (peptide)
peptide: ANYRWSRSIK
modifications: also: biotinylated via PEG3 (AEEEA)-Trp spacer, attachment site and resin-derived C-terminal Lys or Cys not given here
In assay [2], B5 gave a Kd of 57.5 nM, an off-rate (koff) of 0.049 s⁻¹ and a kon of 851000 M⁻¹ s⁻¹.

B6: norovirus-binding peptide of SEQ ID NO: 302 (peptide)
peptide: VWWGRRISRF
modifications: also: biotinylated via PEG3 (AEEEA)-Trp spacer, attachment site and resin-derived C-terminal Lys or Cys not given here
In the case of B6, in assay [1], the Kd stood at 28.4 nM, the dissociation rate constant (koff) came to 0.0648 s⁻¹ and the on-rate constant (kon) worked out at 2.28e+06 M⁻¹ s⁻¹.

B7: norovirus-binding peptide of SEQ ID NO: 103 (peptide)
peptide: RFLVPVVKVM
modifications: also: biotinylated via PEG3 (AEEEA)-Trp spacer, attachment site and resin-derived C-terminal Lys or Cys not given here
For B7, in assay [1], the dissociation constant Kd is 8.13 nM, the off-rate (koff) was 0.0112 s⁻¹ and the kon worked out at 1.38e+06 M⁻¹ s⁻¹. For the same molecule, in assay [2], the dissociation constant Kd worked out at 8.07 nM, the dissociation rate constant (koff) was 0.017 s⁻¹ and the kon stood at 2.1e+06 M⁻¹ s⁻¹.
